Laboratory results taken from publication PMC6290062, “Characterization of a Novel, Cold-Adapted, and Thermostable Laccase-Like Enzyme With High Tolerance for Organic Solvents and Salt and Potent Dye Decolorization Ability, Derived From a Marine Metagenomic Library” (Frontiers in Microbiology, 2018).

What was measured:
Assay in all cases: purified protein
Details in all cases: 0.04 M Britton-Robinson buffer, pH 7.0, 60°C
Oc1ccccc1O = test system: Oc1ccccc1O
[1] = test system: COc1cc(C=NN=Cc2cc(OC)c(O)c(OC)c2)cc(OC)c1O
COc1ccccc1O = assay type: biochemical, uncultured bacterium

Substance Lac1326 (uncultured bacterium) has a Km (Oc1ccccc1O) of 507 µM, a kcat/Km (Oc1ccccc1O) of 28000 M⁻¹ s⁻¹ and a Km [1] of 831 µM. For the same substance, the kcat [1] was 24.1 s⁻¹, the kcat/Km [1] was 29000 M⁻¹ s⁻¹ and the Km (COc1ccccc1O) was 4900 µM. It also gave a kcat (COc1ccccc1O) of 1.34 s⁻¹ and a kcat/Km (COc1ccccc1O) of 270 M⁻¹ s⁻¹.
